{
  "source": "the nanobody polyreactivity screen of Harvey et al. (2022)",
  "data": [
    {"assay": "yeast display, Sf9 membrane polyspecificity reagent, FACS + sequencing; frameworks hold sequencing errors", "summary_of_the_method": "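A nanobody's polyreactivity label depends on the gate it was sorted from. Yeast display cells were stained with 10% biotinylated, detergent-solubilized Sf9 membrane reagent for 1 hour at 4 °C, enriched on streptavidin microbeads and sorted by FACS. The low and high (top ~1%) gates were set on anti-HA fluorescence for expression and streptavidin fluorescence for reagent binding.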", "values": [
      {"sequence": "QGQLVESWGGLVQAGGSLRLSCAATRRTFLYYVMGWYRQAPGKETELVAAITNRGGSTYYADSVKGRFTISRDNAKNNVYVLMKSLKQEDTAVYYSNAPYGVYWSSTYYFWGQGTQVTVSS", "polyreactivity (PSR sort gate)": "high polyreactivity"},
      {"sequence": "QGQLVQSGVGLVQAGGILRLSCASSGITFASYAMGWYRPAPGKEMELVATITTGGTNTYYADSVKARFTISRDNAKNTVYLQMNSLKPEDTAVYSSAADSTQYVLSGNYDYWGQGTQVTVSS", "polyreactivity (PSR sort gate)": "low polyreactivity"},
      {"sequence": "QGQLVVSGGGLVQAGGSLRLSCAASGRISSSYAMGWYRQAPGKEREFVAAIRSSGGSTYYADSVKGRFTISRDYAKNTVYLQMISLKPVDTAVYYCNKVGFYQSRKYYYWGQATQVTVSS", "polyreactivity (PSR sort gate)": "high polyreactivity"},
      {"sequence": "QHQIVESGGGLVQAGGSLRLSCAASGSTIYRYAMGWYRQAPGKERELVAAISSSGGSTYYADSVKGRFTISRDNAKNTVYLQMNSLKPEDTAVYYCNAADRVRRFDYWGQGTQVTVSS", "polyreactivity (PSR sort gate)": "low polyreactivity"},
      {"sequence": "QIHLVESGGGLVQAGGSLRLSCAASGGIFYINAMGWYRQAPGKEREFVAAITESSDITYYADSVKGRFTISRDNAKNTVYLQMNSLKPEDSAVYYCAAEFVRSGDDYWGQGTQVTVSS", "polyreactivity (PSR sort gate)": "low polyreactivity"},
      {"sequence": "QIQLEESGGGLVQAGGSLRLSCAASGSIFDYNTMGWYSQAPGKERELVAAISSSGGSTYYADSVKGRFTISRDNAKNSVYLQMNSLKPEDTAVYYCAAVNGYQYPPYYFNGYDYWGQGTQVTVSS", "polyreactivity (PSR sort gate)": "low polyreactivity"},
      {"sequence": "QIQLVESGGGLVQAGGSLRLSCAASGRIFFRNAMGWYRQAPGKERELVAGITWSGGSTYYADSVKGRFTISRDNAKNTVYLQMNSLKPEDTAVYYCNAVWRYRVLCDYWGQGTQVTVSS", "polyreactivity (PSR sort gate)": "high polyreactivity"},
      {"sequence": "QIQLVESGGGLVQAGGSLRLSCAASGRTFYSYAMGWYRQAPGKERELVAAINRGASTYYADSVKGRFTISRDNAKNTVYFQMNSLKPEDTAVYYCNAQYYYIPSSTDYDYWGQGTQVTVSS", "polyreactivity (PSR sort gate)": "high polyreactivity"},
      {"sequence": "QIQLVESGGGLVQAGGSLRLSCAASGSTLPDYAMGWYRQAPGKERELVADITARGGTYYADSVKGRFTISRDNAKNTVYLQMNSLKPEDTAVYYCAARISGRWYEYWGQGTQVTVSS", "polyreactivity (PSR sort gate)": "high polyreactivity"},
      {"sequence": "QLLLQESVGGLVQAGGSLRLSCAASGSIFLFYTMGAYRQAPVKELEFVAGITLGTTTYNADSVKGRFTISRDNVKNTVYLQMNSLKPEDTAVYYCAVAVGHYTEFWYWGQGTQVTMSS", "polyreactivity (PSR sort gate)": "high polyreactivity"},
      {"sequence": "QLQHVESGGGLVQAGGSLRLSCADSGRTFQYYAMGSYRQPPGKESELVAAINTSGGRTSYADSVKGRFTISRDNAKNTVYLQMNILKPEDTAVYYCAAKPFSYVYSSYYYWGQGTQVTVSS", "polyreactivity (PSR sort gate)": "high polyreactivity"},
      {"sequence": "QLQHVESWGGLVQAGGSLRLSCAASGRTFRANDKRSYRQAPGKQSELVAAISQSGGSRYYADSVKGRFTISRDNAKNTVYLQLNSLKPEDTAVYYCNALGRISNHTLYDYWGQGTQVTVSS", "polyreactivity (PSR sort gate)": "low polyreactivity"},
      {"sequence": "QLQLEESAGGLVQAGGSLRLSCAASGSIFGPYAMGSYSQAPGKERELVAAITWSGDSTYYADSVKGRFTISRDNAKNTVYLQMNSLKPEDTAVSYCNADWGQGTQVTVSS", "polyreactivity (PSR sort gate)": "low polyreactivity"},
      {"sequence": "QLQLEESGGGLVQAGGSLSLRCAASGRIFSRYPMGWYRQAPGKERELVAAISSRAGSTYYADSVKGRFTISRDNAKNTVYLQMNSLKPEDTAVYYCNNPSYSCSSPYDHWGQGTQVTVSS", "polyreactivity (PSR sort gate)": "high polyreactivity"},
      {"sequence": "QLQLEESRGGLVQAGGSLRLSCAASGGTCFSYAMGCYRQAPGKERELVAGIRNGGSTKYADSVKGRFTISRDNAKNTVYLQMNSLNPEDTAVYYCAARYYRPYTSSWAHNYRLDYCGQGTQVTVSS", "polyreactivity (PSR sort gate)": "high polyreactivity"},
      {"sequence": "QLQLGESGGGLVQAGASLRLSFAPSGRLFDRYAMGWYRTAPATERELVASIRSGGSTNYADSVKGRFTISRDNAKNTGYLQMNSLNPEDTAVYYCAAVLRPVRFYSGYYYWGQGTQVTVSS", "polyreactivity (PSR sort gate)": "high polyreactivity"},
      {"sequence": "QLQLHESGGGLVQAGGGLRLICAASGSISSTVFMGWYRQAPGKEREPVAAIAPCTTTYYADSLKGRFTISRDNAKNTVYLQKNSLRPEDTAVYYCAVFTDNRVAFLYWGQGTQVTLSS", "polyreactivity (PSR sort gate)": "low polyreactivity"},
      {"sequence": "QLQLQESGGGLVQAGGSLRLSCAESGTIFGWDRMGRYRQAPGKERELVATIDNRGSTNYADSVKGRFTISRDNAKNTLFPQMNSLKPDDTEVYYCAVVGPTPQYHLYWGEGTQVTVSS", "polyreactivity (PSR sort gate)": "high polyreactivity"},
      {"sequence": "QLQLVESAGGLVQAGGSLRLSCAASGIIFSYYAMGWYRKAPGKERELVAAISWSGGSTYYADSVKGRFTISRDNAKNTVYLQLNSLKPEDTAVYYCAADDYLAYEYWGQGTQVTVSS", "polyreactivity (PSR sort gate)": "high polyreactivity"},
      {"sequence": "QLQLVESGGGIVQAGGRLRLSCAASGLIFYLYAMGWYRQAPGKERELVATITTGGRTNYADSVKGRFTISRDNAKISVYLQMNSLTPVDTAVYYCAATHRGQGGYYWGQGSQVTVSS", "polyreactivity (PSR sort gate)": "low polyreactivity"},
      {"sequence": "QLQLVESGGGIVQAGGSLRLSCAASGSTFLRNAMGRYRQAPGKKGSGVATISYDGYSTYYADSVKGRLTISRDNAKNSFYLQMNSLKPEDTAVYYCAASYSLTFWDKDDYWGQGSQVTVSS", "polyreactivity (PSR sort gate)": "low polyreactivity"},
      {"sequence": "QLQLVESGGGLDQAGGSLRLSCAASAFTFGYYSKGWNRQAPGKQTELVASISRSGGSTNYADSVKGRFTISRDNAKKTVYLQMNSLIPEDNAVYYCNNRVNTYRSVSRRYDYWGQGTQVTLSS", "polyreactivity (PSR sort gate)": "high polyreactivity"},
      {"sequence": "QLQLVESGGGLVQAGARLRLSCAASGSIFRFNPMGWYIPAPGKERELVAAITSSGDSTYYADSVKGRFTISRDNAKYTVYLQMNCLKPEDTAVSDCAAVRNRFIGWTVRYNWARIYNYWGQGTQVTVSS", "polyreactivity (PSR sort gate)": "high polyreactivity"},
      {"sequence": "QLQLVESGGGLVQAGCSLRLSFAASVIICWANAMGCYIHAPGKERELVASITSGGSTYYADSVKGRFTISRDNAKTTVYFQMNSLKPEDTAVYYCAADPYGWWDWHTLGTYDYWGQGTQVTVSS", "polyreactivity (PSR sort gate)": "low polyreactivity"},
      {"sequence": "QLQLVESGGGLVQAGGRLRLTCAASGRTFPYYFMGWYRPAPGKERELVAAINSGGRTNYADSVKGLFTISRDNAKNTVYLQMNSLKPEDTAVYYCTKRGHPARLGYYYWGQGTQVTVSS", "polyreactivity (PSR sort gate)": "low polyreactivity"},
      {"sequence": "QLQLVESGGGLVQAGGSLRISCAASGFTFRYYAMGWYRQAPGKERKFVAGIDFGAITNYADSVKGRFTISRDNAKNTEYLQMSSLKPEDTAVYYCAAGVYDWYAYDYWGQGTQVTVSS", "polyreactivity (PSR sort gate)": "high polyreactivity"},
      {"sequence": "QLQLVESGGGLVQAGGSLRLICAASGLIFFWYTMGWYRQAPGKDRELVAAIDSGGSTYYADSVKGRFTNSRDNAKYTVYLEMISLKPEDTAVYYCAADSFYLYIEYYYWGQGTQVTVSS", "polyreactivity (PSR sort gate)": "high polyreactivity"},
      {"sequence": "QLQLVESGGGLVQAGGSLRLICAASGRIFATYAMGWYRQAPGKEREFVAAITKGGVRTYYADSVKGRFTISRDNAKNTVYLQMNSLKPEDTAVYYCAADAWVRGRYPYGYDYWGQGTQVTVSS", "polyreactivity (PSR sort gate)": "low polyreactivity"},
      {"sequence": "QLQLVESGGGLVQAGGSLRLRCAASGRIFVRYAMGWYRQEPGKERELVAAISTRGGSTYYADSVKGRFTISRDKAKNTVYLQMNSLKAEDTAVYYCASGPRPRPSDYWGQGTQVTGSS", "polyreactivity (PSR sort gate)": "high polyreactivity"},
      {"sequence": "QLQLVESGGGLVQAGGSLRLRCAASGRTFIRYAMGWYRPAPGKERELVAAISSRGGRTHYADSVKGRFTISRDNAKNTFYFQMNSLKPEDTAVYDCAADLNYGTVPGASYDYWGQGTQVTGSS", "polyreactivity (PSR sort gate)": "low polyreactivity"},
      {"sequence": "QLQLVESGGGLVQAGGSLRLSCAASGFIFSWYAMGWYRQAPGKERELVAAISWSGGSTYYADSVKGRITISRDNANNSVYLQMNSLKPEDTAVYYCADDRGWAKEYYWVQGTQVTVSS", "polyreactivity (PSR sort gate)": "high polyreactivity"},
      {"sequence": "QLQLVESGGGLVQAGGSLRLSCAASGFTFQYYAMGWYRQAPCKERELVAVISRSGGRTYYADSVKGRFTISRDNAKYTVYLQMYSLKPEDTAVYYCAALSQPGQRDDNQYDYWGQGTQVTVSS", "polyreactivity (PSR sort gate)": "high polyreactivity"},
      {"sequence": "QLQLVESGGGLVQAGGSLRLSCAASGFTFRYYAMGWYRQAPGKERELVAAITRSGTTSYADSVKGRFTISRDNAKNTVYLQMNSLKPEDTAVYYCNTRVTGNRLGYYYWGQGTQVTVSS", "polyreactivity (PSR sort gate)": "high polyreactivity"},
      {"sequence": "QLQLVESGGGLVQAGGSLRLSCAASGFTFVSNAMGWYRQAPGKERELVAVISSGGSTTYADSVKGRFSISPDNAKNTVYLQMNSLKPEDTAGYYCATTNSQDSYEGGDYWGQGTQVTVSS", "polyreactivity (PSR sort gate)": "low polyreactivity"},
      {"sequence": "QLQLVESGGGLVQAGGSLRLSCAASGFTSDVYAKVSYRQAPGKERELVAEISARGGSTYYADSVKGRFTISRDNAKNTVYLQMNSLKPEDTAVYYCAAEVYVGTIGFYADFFYYPVYYWGQGTQVTVSS", "polyreactivity (PSR sort gate)": "low polyreactivity"},
      {"sequence": "QLQLVESGGGLVQAGGSLRLSCAASGIIFYWNAMGWYRQAPGKEREFVASISGSGGSTYADSVKGRFTISRDNAKNTVYLQMNSLKPEDTAVYYCAADFSNVGVQHDYYWGQGTQVTVSS", "polyreactivity (PSR sort gate)": "high polyreactivity"},
      {"sequence": "QLQLVESGGGLVQAGGSLRLSCAASGNIFNYNAMGWYRQAPGKERELVAAISFSGGSTYYADSVKGRFTISRDNAQNTVYLQMNSLKPEDTAVYYCAKAERNYFEDWGQGTQVTVSS", "polyreactivity (PSR sort gate)": "high polyreactivity"},
      {"sequence": "QLQLVESGGGLVQAGGSLRLSCAASGNTFFPYTMGWYRQAPGKERELVAAITWSGVSTYYADSVKGRFTISRDNAKYTVDLQMNSLKPEDTAVYYCAAPSTGTYGSDYWGQGTQVTVSS", "polyreactivity (PSR sort gate)": "high polyreactivity"},
      {"sequence": "QLQLVESGGGLVQAGGSLRLSCAASGRIFKFNAMGWYRQATGKERELVARITWRGGSPYYADSVKGRFTISRDNAKNTVYLQLNSLKPEDTAVYDCATYTPWTRFYSGTEVGYWGQGTQVTVSS", "polyreactivity (PSR sort gate)": "high polyreactivity"},
      {"sequence": "QLQLVESGGGLVQAGGSLRLSCAASGRIFRGYAMGWYRQAPGKERELVAAISGSGGSTYYADSVKGRFTISRDNAKNSVYLQMNSLKPEDTAVYYCAAEGRNYYGSYDYWGQGTQVTVSS", "polyreactivity (PSR sort gate)": "low polyreactivity"},
      {"sequence": "QLQLVESGGGLVQAGGSLRLSCAASGRTFSTYAMGWYRQAPGKEIELVAAISSGGGRTYYADSVKGRFTISRDNAKNTVYLQMNSLKQEDTAVYYCAADRYFRSRRSYEYWGQGTQVTVSS", "polyreactivity (PSR sort gate)": "low polyreactivity"},
      {"sequence": "QLQLVESGGGLVQAGGSLRLSCAASGRTFSYNTMGWYRHAPGKERELVAAISWSGGSTYYADSVKGRFTISRDNAKNTVYLQMNSLKPEDSAVYYCNARSSGKGRSNAYYKGHGYWGQGTQVTVSS", "polyreactivity (PSR sort gate)": "high polyreactivity"},
      {"sequence": "QLQLVESGGGLVQAGGSLRLSCAASGSIFASNAMGWYRQAPGKERELVAAISSGGSRTYYADSVKGRFTISRDNAKNSVYLQMNSLKPEDTAVYYCNTVWFYGAKYDYWGQGTQVTVSS", "polyreactivity (PSR sort gate)": "high polyreactivity"}
    ]}
  ]
}
